Molecular target: Rabbit skeletal muscle actin (rabbit, UniProt P68135 1-377)
Experiment: pull-down; purified His–KAT14 or His–GST (from a lysate) held on Ni-NTA agarose beads, washed with up to 500 mM NaCl, then incubated with a 4-fold amount of rabbit skeletal muscle actin in G-buffer (5 mM Tris-HCl pH 7.5, 0.2 mM ATP, 0.2 mM CaCl2, 0.5 mM DTT) for 3 h at +4°C; western blot
Details: both partners purified

B1: Recombinant human His-KAT14 (enzyme)
chain: MDSSIHLSSLISRHDDEATRTSTSEGLEEGEVEGETLLIVESEDQASVDLSHDQSGDSLNSDEGDVSWMEEQLSYFCDKCQKWIPASQLREQLSYLKGDNFFRFTCSDCSADGKEQYERLKLTWQQVVMLAMYNLSLEGSGRQGYFRWKEDICAFIEKHWTFLLGNRKKTSTWWSTVAGCLSVGSPMYFRSGAQEFGEPGWWKLVHNKPPTMKPEGEKLSASTLKIKAASKPTLDPIITVEGLRKRASRNPVESAMELKEKRSRTQEAKDIRRAQKEAAGFLDRSTSSTPVKFISRGRRPDVILEKGEVIDFSSLSSSDRTPLTSPSPSPSLDFSAPGTPASHSATPSLLSEADLIPDVMPPQALFHDDDEMEGDGVIDPGMEYVPPPAGSVASGPVVGVRKKVRGPEQIKQEVESEEEKPDRMDIDSEDTDSNTSLQTRAREKRKPQLEKDTKPKEPRYTPVSIYEEKLLLKRLEACPGAVAMTPEARRLKRKLIVRQAKRDRGLPLFDLDQVVNAALLLVDGIYGAKEGGISRLPAGQATYRTTCQDFRILDRYQTSLPSRKGFRHQTTKFLYRLVGSEDMAVDQSIVSPYTSRILKPYIRRDYETKPPKLQLLSQIRSHLHRSDPHWTPEPDAPLDYCYVRPNHIPTINSMCQEFFWPGIDLSECLQYPDFSVVVLYKKVIIAFGFMVPDVKYNEAYISFLFVHPEWRRAGIATFMIYHLIQTCMGKDVTLHVSASNPAMLLYQKFGFKTEEYVLDFYDKYYPLESTECKHAFFLRLRR
notes: KAT14, human; also called His-tagged KAT14; source: Sf9 (MultiBac baculovirus), purified (Ni-NTA, Superdex 200)
binding result: binds

Source: paper PMC6503952, “Nuclear actin interactome analysis links actin to KAT14 histone acetyl transferase and mRNA splicing” (Journal of Cell Science, 2019)
